Results from US20090018316A1 (IMMUNEX, published 2009).

What was measured:
[1] = target: T1, murine IL-15R (full length, cDNA clone D1-4-D5) (murine, UniProt Q60819 33-263); test: 125I-IL-15 binding to monolayers of COS cells transfected with clone D1-4-D5
T1 construct: Cell-surface receptor: recombinant on COS-7 and 32D transfectants, native or endogenous on D10, 32D-01, 32Dmβ-5 and CTLL.2 cells; 32D lines also carry IL-2Rα and γc, and some carry IL-2Rβ; the cell line is named under assay; also called murine IL-15Rα; IL-15Rα
T1 sequence: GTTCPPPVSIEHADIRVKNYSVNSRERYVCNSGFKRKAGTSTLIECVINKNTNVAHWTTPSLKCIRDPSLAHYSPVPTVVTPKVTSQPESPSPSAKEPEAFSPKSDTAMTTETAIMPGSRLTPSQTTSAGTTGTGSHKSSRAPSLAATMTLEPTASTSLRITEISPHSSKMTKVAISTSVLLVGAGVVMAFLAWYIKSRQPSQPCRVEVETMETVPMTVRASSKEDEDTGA
Description: D. Recombinant IL-15R Binding. Plasmid DNA from IL-15 receptor expression plasmid was used to transfect a sub-confluent layer of monkey COS-7 cells using DEAE-dextran followed by chloroquine treatment, as described by Luthman et al., Nucl Acids Res. 11:1295 (1983) and McCutchan et al., J. Natl. Cancer Inst. 41:351 (1968). The cells were then grown in culture for three days to permit transient expression of the inserted sequences. After three days, the cell monolayers were assayed for ¹²⁵I-IL-15 binding essentially as described by Park, et al., J. Exp. Med. 166:476 (1987). Non-specific binding of ¹²⁵I-IL-15 was measured in the presence of 200-fold or greater excess of unlabeled IL-15.

[2] = target: T2, native human IL-15 receptor on human cells (human, UniProt Q13261 31-267); test: radiolabeled IL-15 binding to the human fibroblast line W126-VA4
T2 construct: whole, on cells; Endogenous receptor; its subunits on these cells were not defined; Clone W5 was later cloned from W126-VA4 cells, and clones A212 and A133 from A172 cells
Description: (§1) Various human cell lines and tissues were screened for the ability to bind radiolabeled IL-15 substantially as described in Example 1. High affinity binding was observed on activated peripheral blood mononuclear cells, activated monocytes and some EBV-transformed cell lines.

[3] = target: T1, murine IL-15R (full length, cDNA clone …); test: equilibrium binding of 125I-simian IL-15 to 32Dmβ-5 cells (sites ascribed to endogenous IL-15Rα)
[4] = target: T2, native human IL-15 receptor on human …; test: radiolabeled IL-15 binding to vascular endothelial cells of arterial origin
Description: as §1

[5] = target: T3, complexes of murine β and γc (IL-2Rβ and common γ chain) in the absence of the IL-15Rα chain (murine, UniProt P16297 27-539; P34902 23-369); test: equilibrium binding of 125I-simian IL-15 to 32Dmβ-5 cells: no IL-15 binding sites beyond those of the 32D-01 parent line
T3 construct: whole, on cells; On 32Dmβ-5 cells, which also express IL-2Rα and about 40 sites per cell of endogenous IL-15Rα; also called murine IL-2Rβ/γc; 32Dmβ-5 cells
T3 sequence (looked up) 1: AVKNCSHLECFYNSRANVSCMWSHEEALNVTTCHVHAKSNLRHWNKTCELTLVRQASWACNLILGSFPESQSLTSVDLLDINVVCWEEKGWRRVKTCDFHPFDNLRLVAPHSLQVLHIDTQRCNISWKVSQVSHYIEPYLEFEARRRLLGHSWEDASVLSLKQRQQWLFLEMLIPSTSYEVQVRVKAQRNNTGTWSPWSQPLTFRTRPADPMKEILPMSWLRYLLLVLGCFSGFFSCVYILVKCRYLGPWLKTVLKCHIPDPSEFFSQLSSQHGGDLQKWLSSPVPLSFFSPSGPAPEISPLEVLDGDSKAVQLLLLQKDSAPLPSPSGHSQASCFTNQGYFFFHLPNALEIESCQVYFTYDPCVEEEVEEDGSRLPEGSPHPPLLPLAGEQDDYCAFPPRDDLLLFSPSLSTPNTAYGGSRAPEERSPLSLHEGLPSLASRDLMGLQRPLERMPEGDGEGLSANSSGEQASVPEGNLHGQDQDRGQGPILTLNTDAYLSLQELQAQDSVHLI
T3 sequence (looked up) 2: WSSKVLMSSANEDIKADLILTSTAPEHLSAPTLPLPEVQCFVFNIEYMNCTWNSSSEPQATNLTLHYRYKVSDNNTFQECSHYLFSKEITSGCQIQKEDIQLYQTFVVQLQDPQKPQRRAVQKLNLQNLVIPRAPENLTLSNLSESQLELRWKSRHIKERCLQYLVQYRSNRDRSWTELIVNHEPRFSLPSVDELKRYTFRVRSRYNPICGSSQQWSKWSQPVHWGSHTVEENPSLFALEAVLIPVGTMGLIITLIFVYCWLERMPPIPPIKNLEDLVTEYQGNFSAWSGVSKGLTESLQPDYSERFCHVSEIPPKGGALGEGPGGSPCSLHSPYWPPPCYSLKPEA

[6] = target: T2, native human IL-15 receptor on human …; test: radiolabeled IL-15 binding to the glioblastoma cell line A-172
Description: as §1

[7] = target: T1, murine IL-15R (full length, cDNA clone …); test: equilibrium binding of 125I-simian IL-15 to 32Dm15Rα-102 cells (transfected with IL-15Rα)
[8] = target: T2, native human IL-15 receptor on human …; test: radiolabeled IL-15 binding to vascular endothelial cells of venous origin
Description: as §1

[9] = target: T1, murine IL-15R (full length, cDNA clone …); test: equilibrium binding of 125I-simian IL-15 to parental 32D-01 cells (endogenous IL-15Rα)
[10] = target: T1, murine IL-15R (full length, cDNA clone …); test: equilibrium binding of 125I-simian IL-15 to 32Dmβm15Rα-3 cells (recombinant IL-15Rα and IL-2Rβ, γc constitutive)
[11] = target: T1, murine IL-15R (full length, cDNA clone …); test: equilibrium binding of 125I-simian IL-15 to D10 cells (native IL-15R)

T2 sequence (Q13261 31-267): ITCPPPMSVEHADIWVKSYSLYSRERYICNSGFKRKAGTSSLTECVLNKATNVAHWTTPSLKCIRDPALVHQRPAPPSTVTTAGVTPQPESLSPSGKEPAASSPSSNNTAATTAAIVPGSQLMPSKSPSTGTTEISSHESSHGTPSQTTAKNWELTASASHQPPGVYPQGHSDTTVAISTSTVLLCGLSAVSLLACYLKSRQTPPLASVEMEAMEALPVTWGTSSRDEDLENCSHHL

B1: Recombinant flag simian IL-15 expressed in yeast (ligand)
chain: DYKDDDDKNWVNVISDLKKIEDLIQSMHIDATLYTESDVHPSCKVTAMKCFLLELQVISHESGDTDIHDTVENLIILANNILSSNGNITESGCKECEELEEKNIKEFLQSFVHIVQMFINTS
modifications: radioiodinated (125I, enzymobead iodination reagent); labelled residues not stated
notes: Flag-tagged simian IL-15 made in yeast, purified and radioiodinated; also called 125I-IL-15; 125I-simian IL-15
B1 showed a Kd [1] of 1 to 2.2 nM, a Kd [2] of 0.027 nM and a Ka [3] of 1.9e+11 M⁻¹. The Kd [4] was 0.163 nM, the binding result [5] was “no binding” and the Kd [6] was 0.05 to 0.138 nM. The Ka [7] was 1.5e+11 M⁻¹, the Kd [8] was 0.033 nM and the Ka [9] was 1.4e+11 M⁻¹. The Ka [10] was 2.2e+11 M⁻¹ and the Ka [11] was 1.3e+11 M⁻¹.
